{"source": "paper PMC8534766", "molecular_target": "SP-1, serine protease from Clostridium ramosum DSM1402 (Clostridium ramosum DSM1402)", "note": "Starred links: 1 amine or outer side, 2 acyl side, 3 side chain; linkers in the order of their positions; H or OH if unused. Benzoyl(5-NH,2-NO2) = O=C(c1cc(N[*:1])ccc1[N+](=O)[O-])[*:2]", "data": [{"binder": "{ABZ}-IMAR-{Benzoyl(5-NH,2-NO2)-NH2}", "note": "[ABZ-Ileu-Met-Ala-Arg-ANB-NH2]", "values": [{"measurement": "KM of steady-state cleavage of the substrate by SP-1 (20 nM SP-1, 0.05-2 mM substrate, 20 mM Tris, 300 mM NaCl, 1 mM CaCl2, pH 8, room temperature; Michaelis-Menten fit)", "value": 0.000191, "unit": "M"}]}]}
